According to publication PMC9482650, “Quantitative fragmentomics allow affinity mapping of interactomes” (Nature Communications, 2022):
Substitutions are numbered along the chain they refer to.

T1: PCLO, Q9Y6V0
T1 sequence (Q9Y6V0 4491-4600, limits assumed, looked up): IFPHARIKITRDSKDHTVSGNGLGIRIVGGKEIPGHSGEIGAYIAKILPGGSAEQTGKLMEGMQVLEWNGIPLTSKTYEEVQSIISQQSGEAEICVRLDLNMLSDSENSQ

T2: SNTA1, Q13424
T2 sequence (Q13424 82-180, limits assumed, looked up): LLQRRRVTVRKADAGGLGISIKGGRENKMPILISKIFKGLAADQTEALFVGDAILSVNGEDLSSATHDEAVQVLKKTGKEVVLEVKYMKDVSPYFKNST

T3: APBA2_2, Q99767
T3 sequence (Q99767 654-744, limits assumed, looked up): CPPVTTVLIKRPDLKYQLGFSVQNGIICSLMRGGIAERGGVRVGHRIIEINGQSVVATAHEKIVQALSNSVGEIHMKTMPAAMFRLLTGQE

T4: ARHGAP21, Q5T5U3
T4 sequence (Q5T5U3 45-169, limits assumed, looked up): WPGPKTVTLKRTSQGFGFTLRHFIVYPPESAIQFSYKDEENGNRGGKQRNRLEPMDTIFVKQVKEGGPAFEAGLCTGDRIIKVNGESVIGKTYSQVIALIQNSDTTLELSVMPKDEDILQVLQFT

T5: APBA1_2, Q02410
T5 sequence (Q02410 742-832, limits assumed, looked up): T3 sequence (Q99767 654-744, limits assumed, looked up) with K10R, K15R, A59P, Q65H, A66I, S70A, F84Y, G89A

T6: MPP2, Q14168
T6 sequence (Q14168 180-250, limits assumed, looked up): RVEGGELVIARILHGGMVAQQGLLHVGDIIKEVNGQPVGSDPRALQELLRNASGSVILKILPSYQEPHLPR

T7: NHERF3_3, Q5T2W1
T7 sequence (Q5T2W1 238-333, limits assumed, looked up): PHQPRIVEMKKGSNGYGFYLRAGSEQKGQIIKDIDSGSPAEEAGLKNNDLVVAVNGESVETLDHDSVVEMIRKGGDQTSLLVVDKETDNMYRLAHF

T8: GRIP1_4, Q9Y3R0
T8 sequence (Q9Y3R0 467-571, limits assumed, looked up): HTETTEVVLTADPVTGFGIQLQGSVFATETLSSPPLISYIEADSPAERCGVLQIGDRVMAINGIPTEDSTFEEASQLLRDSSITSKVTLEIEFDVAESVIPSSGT

T9: MPP6, Q9NZW5
T9 sequence (Q9NZW5 125-219, limits assumed, looked up): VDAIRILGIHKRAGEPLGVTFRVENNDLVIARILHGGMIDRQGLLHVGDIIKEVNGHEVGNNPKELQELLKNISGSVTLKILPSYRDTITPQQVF

B1: CTNNA2, P26232 (peptide)
chain: LSEFKAMDSF
B2: HSPA5, P11021 (peptide)
chain: EEDTAEKDEL
B3: SLC1A4, P43007 (peptide)
chain: PELESKESVL
B4: CACNG4, Q9UBN1 (peptide)
chain: SMLNRRTTPV

The binders below were run against NHERF2_2, Q15599 (assay: holdup assay). Details: plain residues with an end cap or a label only (N-terminal biotin on a linker: ado-ado).
Parameters: key: below the threshold = too weak to quantify, mostly under pKd 3.1 to 4

Chain of NHERF2_2, Q15599 (Q15599 142-238): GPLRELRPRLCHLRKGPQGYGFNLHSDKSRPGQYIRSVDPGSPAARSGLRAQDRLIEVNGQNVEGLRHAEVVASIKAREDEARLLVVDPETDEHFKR

Row | Binder | pKd
1 | B1 | below the threshold
2 | B2 | 3.7
3 | B3 | 4.4
4 | B4 | below the threshold

What follows are binders tested against Inadl_2, Q8NI35 (assay: holdup assay). Details: plain residues with an end cap or a label only (N-terminal biotin on a linker: ado-ado).
Parameters: key: below the threshold = too weak to quantify, mostly under pKd 3.1 to 4

Chain of Inadl_2, Q8NI35 (Q8NI35 238-335): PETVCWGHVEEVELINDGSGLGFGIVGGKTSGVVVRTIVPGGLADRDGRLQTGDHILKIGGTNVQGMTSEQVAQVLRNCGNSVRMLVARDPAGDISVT

Row | Binder | pKd
5 | B1 | below the threshold
6 | B2 | below the threshold
7 | B3 | below the threshold
8 | B4 | below the threshold

Each binder was assayed against T1, PCLO, Q9Y6V0 (assay: holdup assay). Details: plain residues with an end cap or a label only (N-terminal biotin on a linker: ado-ado).
Parameters: key: below the threshold = too weak to quantify, mostly under pKd 3.1 to 4

Row | Binder | pKd
9 | B1 | below the threshold
10 | B2 | below the threshold
11 | B3 | below the threshold
12 | B4 | below the threshold

What follows are binders tested against FRMPD2_1, Q68DX3 (assay: holdup assay). Details: plain residues with an end cap or a label only (N-terminal biotin on a linker: ado-ado).
Parameters: key: below the threshold = too weak to quantify, mostly under pKd 3.1 to 4

Chain of FRMPD2_1, Q68DX3 (Q68DX3 770-861): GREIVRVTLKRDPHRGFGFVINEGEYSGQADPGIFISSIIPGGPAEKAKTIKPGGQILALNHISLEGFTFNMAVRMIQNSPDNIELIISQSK

Row | Binder | pKd
13 | B1 | below the threshold
14 | B2 | below the threshold
15 | B3 | below the threshold
16 | B4 | 3.54

These binders were tested against T2, SNTA1, Q13424 (assay: holdup assay). Details: plain residues with an end cap or a label only (N-terminal biotin on a linker: ado-ado).
Parameters: key: below the threshold = too weak to quantify, mostly under pKd 3.1 to 4

Row | Binder | pKd
17 | B1 | below the threshold
18 | B2 | below the threshold
19 | B3 | 4.7
20 | B4 | 3.86

These binders were tested against T3, APBA2_2, Q99767 (assay: holdup assay). Details: plain residues with an end cap or a label only (N-terminal biotin on a linker: ado-ado).
Parameters: key: below the threshold = too weak to quantify, mostly under pKd 3.1 to 4

Row | Binder | pKd
21 | B1 | below the threshold
22 | B2 | 3.56
23 | B3 | below the threshold
24 | B4 | below the threshold

The binders below were run against GRIP2_3, Q9C0E4 (assay: holdup assay). Details: plain residues with an end cap or a label only (N-terminal biotin on a linker: ado-ado).
Parameters: key: below the threshold = too weak to quantify, mostly under pKd 3.1 to 4

Chain of GRIP2_3, Q9C0E4 (Q9C0E4 238-339): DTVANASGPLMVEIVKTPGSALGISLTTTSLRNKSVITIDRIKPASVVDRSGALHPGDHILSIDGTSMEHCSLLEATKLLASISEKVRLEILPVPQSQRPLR

Row | Binder | pKd
25 | B1 | below the threshold
26 | B2 | below the threshold
27 | B3 | below the threshold
28 | B4 | below the threshold

Each binder was assayed against MAGI2_6, Q86UL8 (assay: holdup assay). Details: plain residues with an end cap or a label only (N-terminal biotin on a linker: ado-ado).
Parameters: key: below the threshold = too weak to quantify, mostly under pKd 3.1 to 4

Chain of MAGI2_6, Q86UL8 (Q86UL8 1141-1229): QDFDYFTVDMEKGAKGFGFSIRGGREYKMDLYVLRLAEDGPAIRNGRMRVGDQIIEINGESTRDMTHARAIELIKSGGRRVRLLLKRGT

Row | Binder | pKd
29 | B1 | below the threshold
30 | B2 | below the threshold
31 | B3 | 3.93
32 | B4 | below the threshold

Each binder was assayed against GRID2IP_1, A4D2P6 (assay: holdup assay). Details: plain residues with an end cap or a label only (N-terminal biotin on a linker: ado-ado).
Parameters: key: below the threshold = too weak to quantify, mostly under pKd 3.1 to 4

Chain of GRID2IP_1, A4D2P6 (A4D2P6 1-87): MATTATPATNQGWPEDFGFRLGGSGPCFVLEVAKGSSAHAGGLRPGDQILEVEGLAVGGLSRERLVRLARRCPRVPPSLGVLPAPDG

Row | Binder | pKd
33 | B1 | below the threshold
34 | B2 | below the threshold
35 | B3 | below the threshold
36 | B4 | below the threshold

What follows are binders tested against PDLIM1, O00151 (assay: holdup assay). Details: plain residues with an end cap or a label only (N-terminal biotin on a linker: ado-ado).
Parameters: key: below the threshold = too weak to quantify, mostly under pKd 3.1 to 4

Chain of PDLIM1, O00151 (O00151 1-87): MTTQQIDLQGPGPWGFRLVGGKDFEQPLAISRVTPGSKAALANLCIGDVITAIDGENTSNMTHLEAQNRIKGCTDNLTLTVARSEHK

Row | Binder | pKd
37 | B1 | below the threshold
38 | B2 | below the threshold
39 | B3 | 3.59
40 | B4 | below the threshold

The binders below were run against CASK, O14936 (assay: holdup assay). Details: plain residues with an end cap or a label only (N-terminal biotin on a linker: ado-ado).
Parameters: key: below the threshold = too weak to quantify, mostly under pKd 3.1 to 4

Chain of CASK, O14936 (O14936 487-570): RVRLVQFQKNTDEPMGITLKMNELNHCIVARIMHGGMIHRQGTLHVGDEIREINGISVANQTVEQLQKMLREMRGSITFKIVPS

Row | Binder | pKd
41 | B1 | below the threshold
42 | B2 | below the threshold
43 | B3 | below the threshold
44 | B4 | below the threshold

These binders were tested against DLG4_1, P78352 (assay: holdup assay). Details: plain residues with an end cap or a label only (N-terminal biotin on a linker: ado-ado).
Parameters: key: below the threshold = too weak to quantify, mostly under pKd 3.1 to 4

Chain of DLG4_1, P78352 (P78352 62-152): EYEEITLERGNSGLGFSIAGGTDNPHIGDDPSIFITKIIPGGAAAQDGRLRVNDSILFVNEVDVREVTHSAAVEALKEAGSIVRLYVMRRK

Row | Binder | pKd
45 | B1 | below the threshold
46 | B2 | below the threshold
47 | B3 | 3.79
48 | B4 | 4.51

The binders below were run against ARHGEF12, Q9NZN5-2 (assay: holdup assay). Details: plain residues with an end cap or a label only (N-terminal biotin on a linker: ado-ado).
Parameters: key: below the threshold = too weak to quantify, mostly under pKd 3.1 to 4

Chain of ARHGEF12, Q9NZN5-2 (Q9NZN5 other isoform, or with tags, fused parts or gaps): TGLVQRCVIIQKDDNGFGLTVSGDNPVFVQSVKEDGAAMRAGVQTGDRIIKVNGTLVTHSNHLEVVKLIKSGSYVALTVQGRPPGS

Row | Binder | pKd
49 | B1 | below the threshold
50 | B2 | below the threshold
51 | B3 | 4.53
52 | B4 | 3.86

What follows are binders tested against MAGI3_2, Q5TCQ9 (assay: holdup assay). Details: plain residues with an end cap or a label only (N-terminal biotin on a linker: ado-ado).
Parameters: key: below the threshold = too weak to quantify, mostly under pKd 3.1 to 4

Chain of MAGI3_2, Q5TCQ9 (Q5TCQ9 398-503): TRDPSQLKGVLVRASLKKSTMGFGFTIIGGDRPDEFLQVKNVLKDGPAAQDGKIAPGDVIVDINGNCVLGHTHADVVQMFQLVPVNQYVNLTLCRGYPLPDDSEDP

Row | Binder | pKd
53 | B1 | below the threshold
54 | B2 | 4.48
55 | B3 | 3.84
56 | B4 | 5.19

The binders below were run against T4, ARHGAP21, Q5T5U3 (assay: holdup assay). Details: plain residues with an end cap or a label only (N-terminal biotin on a linker: ado-ado).
Parameters: key: below the threshold = too weak to quantify, mostly under pKd 3.1 to 4

Row | Binder | pKd
57 | B1 | below the threshold
58 | B2 | 4.05
59 | B3 | 4.07
60 | B4 | 3.97

Each binder was assayed against DLG2_2, Q15700 (assay: holdup assay). Details: plain residues with an end cap or a label only (N-terminal biotin on a linker: ado-ado).
Parameters: key: below the threshold = too weak to quantify, mostly under pKd 3.1 to 4

Chain of DLG2_2, Q15700 (Q15700 189-283): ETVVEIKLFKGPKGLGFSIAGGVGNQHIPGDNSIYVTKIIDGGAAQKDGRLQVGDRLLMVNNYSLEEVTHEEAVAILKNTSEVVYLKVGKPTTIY

Row | Binder | pKd
61 | B1 | below the threshold
62 | B2 | below the threshold
63 | B3 | 3.71
64 | B4 | 4.51

The binders below were run against T5, APBA1_2, Q02410 (assay: holdup assay). Details: plain residues with an end cap or a label only (N-terminal biotin on a linker: ado-ado).
Parameters: key: below the threshold = too weak to quantify, mostly under pKd 3.1 to 4

Row | Binder | pKd
65 | B1 | below the threshold
66 | B2 | below the threshold
67 | B3 | below the threshold
68 | B4 | 3.73

What follows are binders tested against GORASP2, Q9H8Y8 (assay: holdup assay). Details: plain residues with an end cap or a label only (N-terminal biotin on a linker: ado-ado).
Parameters: key: below the threshold = too weak to quantify, mostly under pKd 3.1 to 4

Row | Binder | pKd
69 | B1 | below the threshold
70 | B2 | below the threshold
71 | B3 | below the threshold
72 | B4 | below the threshold

The binders below were run against T6, MPP2, Q14168 (assay: holdup assay). Details: plain residues with an end cap or a label only (N-terminal biotin on a linker: ado-ado).
Parameters: key: below the threshold = too weak to quantify, mostly under pKd 3.1 to 4

Row | Binder | pKd
73 | B1 | below the threshold
74 | B2 | below the threshold
75 | B3 | below the threshold
76 | B4 | below the threshold

The binders below were run against DLG1_1, Q12959 (assay: holdup assay). Details: plain residues with an end cap or a label only (N-terminal biotin on a linker: ado-ado).
Parameters: key: below the threshold = too weak to quantify, mostly under pKd 3.1 to 4

Row | Binder | pKd
77 | B1 | below the threshold
78 | B2 | 3.79
79 | B3 | 3.51
80 | B4 | 4.42

The binders below were run against T7, NHERF3_3, Q5T2W1 (assay: holdup assay). Details: plain residues with an end cap or a label only (N-terminal biotin on a linker: ado-ado).
Parameters: key: below the threshold = too weak to quantify, mostly under pKd 3.1 to 4

Row | Binder | pKd
81 | B1 | below the threshold
82 | B2 | below the threshold
83 | B3 | below the threshold
84 | B4 | below the threshold

Each binder was assayed against T8, GRIP1_4, Q9Y3R0 (assay: holdup assay). Details: plain residues with an end cap or a label only (N-terminal biotin on a linker: ado-ado).
Parameters: key: below the threshold = too weak to quantify, mostly under pKd 3.1 to 4

Row | Binder | pKd
85 | B1 | below the threshold
86 | B2 | below the threshold
87 | B3 | below the threshold
88 | B4 | below the threshold

These binders were tested against T9, MPP6, Q9NZW5 (assay: holdup assay). Details: plain residues with an end cap or a label only (N-terminal biotin on a linker: ado-ado).
Parameters: key: below the threshold = too weak to quantify, mostly under pKd 3.1 to 4

Row | Binder | pKd
89 | B1 | below the threshold
90 | B2 | below the threshold
91 | B3 | below the threshold
92 | B4 | below the threshold

These binders were tested against LIMK2, P53671 (assay: holdup assay). Details: plain residues with an end cap or a label only (N-terminal biotin on a linker: ado-ado).
Parameters: key: below the threshold = too weak to quantify, mostly under pKd 3.1 to 4

Chain of LIMK2, P53671 (P53671 143-248): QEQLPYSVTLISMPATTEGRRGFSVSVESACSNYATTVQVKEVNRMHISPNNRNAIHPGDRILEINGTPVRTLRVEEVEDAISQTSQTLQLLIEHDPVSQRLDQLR

Row | Binder | pKd
93 | B1 | below the threshold
94 | B2 | below the threshold
95 | B3 | below the threshold
96 | B4 | below the threshold

The binders below were run against IL16_4, Q14005 (assay: holdup assay). Details: plain residues with an end cap or a label only (N-terminal biotin on a linker: ado-ado).
Parameters: key: below the threshold = too weak to quantify, mostly under pKd 3.1 to 4

Chain of IL16_4, Q14005 (Q14005 1229-1329): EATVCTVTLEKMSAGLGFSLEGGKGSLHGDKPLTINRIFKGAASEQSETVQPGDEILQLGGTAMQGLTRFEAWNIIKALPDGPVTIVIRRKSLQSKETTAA

Row | Binder | pKd
97 | B1 | below the threshold
98 | B2 | 3.51
99 | B3 | below the threshold
100 | B4 | below the threshold

Each binder was assayed against MAGI2_4, Q86UL8 (assay: holdup assay). Details: plain residues with an end cap or a label only (N-terminal biotin on a linker: ado-ado).
Parameters: key: below the threshold = too weak to quantify, mostly under pKd 3.1 to 4

Chain of MAGI2_4, Q86UL8 (Q86UL8 772-865): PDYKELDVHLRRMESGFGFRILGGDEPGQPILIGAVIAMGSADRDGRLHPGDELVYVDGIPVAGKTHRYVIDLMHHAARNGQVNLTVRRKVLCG

Row | Binder | pKd
101 | B1 | below the threshold
102 | B2 | 3.55
103 | B3 | below the threshold
104 | B4 | 3.52

The binders below were run against TJP2_1, Q9UDY2 (assay: holdup assay). Details: plain residues with an end cap or a label only (N-terminal biotin on a linker: ado-ado).
Parameters: key: below the threshold = too weak to quantify, mostly under pKd 3.1 to 4

Chain of TJP2_1, Q9UDY2 (Q9UDY2 24-128): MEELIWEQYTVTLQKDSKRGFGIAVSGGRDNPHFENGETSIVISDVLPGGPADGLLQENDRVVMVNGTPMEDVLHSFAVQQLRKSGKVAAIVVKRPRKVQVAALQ

Row | Binder | pKd
105 | B1 | below the threshold
106 | B2 | below the threshold
107 | B3 | below the threshold
108 | B4 | 3.97

These binders were tested against FRMPD4, Q14CM0 (assay: holdup assay). Details: plain residues with an end cap or a label only (N-terminal biotin on a linker: ado-ado).
Parameters: key: below the threshold = too weak to quantify, mostly under pKd 3.1 to 4

Chain of FRMPD4, Q14CM0 (Q14CM0 67-160): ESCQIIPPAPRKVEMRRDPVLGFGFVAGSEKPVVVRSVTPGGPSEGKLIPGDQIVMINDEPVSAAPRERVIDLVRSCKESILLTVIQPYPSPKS

Row | Binder | pKd
109 | B1 | below the threshold
110 | B2 | 3.7
111 | B3 | 3.85
112 | B4 | below the threshold
